# T1: human IL-2 receptor IL-2Rα/IL-2Rβ/γc on HEK-Blue IL-2 cells (UniProt P01589 22-272; P14784 27-551; P31785 23-369)
# T1 chain 1: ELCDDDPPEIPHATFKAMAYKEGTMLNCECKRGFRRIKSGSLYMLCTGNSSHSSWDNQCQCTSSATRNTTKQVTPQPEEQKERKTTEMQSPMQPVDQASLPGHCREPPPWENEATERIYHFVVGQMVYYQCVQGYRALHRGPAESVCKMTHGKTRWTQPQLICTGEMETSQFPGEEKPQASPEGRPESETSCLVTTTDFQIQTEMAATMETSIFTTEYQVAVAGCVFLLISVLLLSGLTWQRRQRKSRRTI
# T1 chain 2: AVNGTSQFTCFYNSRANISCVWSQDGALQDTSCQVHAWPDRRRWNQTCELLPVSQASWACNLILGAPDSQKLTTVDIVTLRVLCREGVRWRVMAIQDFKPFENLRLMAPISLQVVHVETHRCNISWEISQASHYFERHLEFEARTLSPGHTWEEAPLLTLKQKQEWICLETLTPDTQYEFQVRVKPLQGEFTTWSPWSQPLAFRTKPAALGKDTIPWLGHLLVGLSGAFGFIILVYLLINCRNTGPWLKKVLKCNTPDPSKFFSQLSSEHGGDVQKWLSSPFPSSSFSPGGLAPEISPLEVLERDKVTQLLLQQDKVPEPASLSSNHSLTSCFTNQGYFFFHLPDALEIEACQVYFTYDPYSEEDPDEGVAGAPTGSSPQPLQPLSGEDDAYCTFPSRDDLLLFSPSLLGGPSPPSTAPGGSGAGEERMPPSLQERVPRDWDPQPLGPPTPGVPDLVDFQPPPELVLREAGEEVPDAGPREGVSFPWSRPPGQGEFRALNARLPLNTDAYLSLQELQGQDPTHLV
# T1 chain 3: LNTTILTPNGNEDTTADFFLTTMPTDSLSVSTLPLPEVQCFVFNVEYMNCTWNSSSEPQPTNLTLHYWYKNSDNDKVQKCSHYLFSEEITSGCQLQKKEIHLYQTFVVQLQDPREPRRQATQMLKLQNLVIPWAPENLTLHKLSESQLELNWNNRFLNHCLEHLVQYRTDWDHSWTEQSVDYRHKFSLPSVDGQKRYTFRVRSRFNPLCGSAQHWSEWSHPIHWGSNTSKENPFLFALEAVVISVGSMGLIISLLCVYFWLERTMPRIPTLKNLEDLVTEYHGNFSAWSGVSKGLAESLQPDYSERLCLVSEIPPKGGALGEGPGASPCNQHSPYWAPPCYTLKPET
# Molecular target: T1, human IL-2 receptor IL-2Rα/IL-2Rβ/γc on …
# Assay: FACS cell binding; avid
row,Binder,EC50 [nM]
1,BsVHH-7 (31x18) (antibody) QVQLVESGGGLVQAGGSLRLSCTGYGGAFTGYALGWFRQAPGKEREFVARINWSGSFTYYASSVKGRFTISRDNAKNTMYLQMNNLKPEDTAVYYCAADNPSTLATDYDNWGQGTQVTVSSGGGGSGGGGSGGGGSGSQVQLVESGGGLVQPGGSLRLSCAISGGTLDSYGIGWVRQAPGKQREGVSCMSRSDDRTYYADSVKGRFTISKDSAKNTVYLQMTSLKPEDTAVYYCAAVDAYGCSLVQPTTYDFWGLGTQVTVSSGGGGSGGGGSGGGGSTVSSDKTHTCPPCPAPEAAGGPSVFLFPPKPKDTLMISRTPEVTCVVVDVSHEDPEVKFNWYVDGVEVHNAKTKPREEQYNSTYRVVSVLTVLHQDWLNGKEYKCKVSNKALGAPIEKTISKAKGQPREPQVYTLPPSRDELTKNQVSLTCLVKGFYPSDIAVEWESNGQPENNYKTTPPVLDSDGSFLLYSKLTVDKSRWQQGNVFSCSVMHEALHNHYTQKSLSLSPGK,23.5
2,BsVHH-8 (32x18) (antibody) QVQLVESGGGLVQAGGSLRLSCAASGRTFGSTAVGWFRQVPGKEREFVSAINRSGSATTYADSVKGRFTISRDNAKNTVYLQMNSLTPEDTGVYYCAADSLPYGRPYYFQRSAGEYDYWGQGTQVTVSSGGGGSGGGGSGGGGSGSQVQLVESGGGLVQPGGSLRLSCAISGGTLDSYGIGWVRQAPGKQREGVSCMSRSDDRTYYADSVKGRFTISKDSAKNTVYLQMTSLKPEDTAVYYCAAVDAYGCSLVQPTTYDFWGLGTQVTVSSGGGGSGGGGSGGGGSTVSSDKTHTCPPCPAPEAAGGPSVFLFPPKPKDTLMISRTPEVTCVVVDVSHEDPEVKFNWYVDGVEVHNAKTKPREEQYNSTYRVVSVLTVLHQDWLNGKEYKCKVSNKALGAPIEKTISKAKGQPREPQVYTLPPSRDELTKNQVSLTCLVKGFYPSDIAVEWESNGQPENNYKTTPPVLDSDGSFLLYSKLTVDKSRWQQGNVFSCSVMHEALHNHYTQKSLSLSPGK,1.9

# Now from value to binder:
row,EC50 [nM],Binder
1,1.3,BsVHH-9 (35x18) (antibody) QVQLQESGGGLVQGGGSLRLSCAASGGIFSSYAMGWFRQAPGKEREFVAAISRSGRSTNYADSVKGRFTISRDNAKSTVYLQMNSLKPEETAVYYCAAGRYYNSAYDPSPGDFGSWGHGTQVTVSSGGGGSGGGGSGGGGSGSQVQLVESGGGLVQPGGSLRLSCAISGGTLDSYGIGWVRQAPGKQREGVSCMSRSDDRTYYADSVKGRFTISKDSAKNTVYLQMTSLKPEDTAVYYCAAVDAYGCSLVQPTTYDFWGLGTQVTVSSGGGGSGGGGSGGGGSTVSSDKTHTCPPCPAPEAAGGPSVFLFPPKPKDTLMISRTPEVTCVVVDVSHEDPEVKFNWYVDGVEVHNAKTKPREEQYNSTYRVVSVLTVLHQDWLNGKEYKCKVSNKALGAPIEKTISKAKGQPREPQVYTLPPSRDELTKNQVSLTCLVKGFYPSDIAVEWESNGQPENNYKTTPPVLDSDGSFLLYSKLTVDKSRWQQGNVFSCSVMHEALHNHYTQKSLSLSPGK
2,88.3,BsVHH-15 (36x19) (antibody) QVQLVESGGGLVQAGGSLRLSCAASGRTLSRYAMGWFRQAPGSEREFVAASSWGGDTFYADSVEGRFTFSRDNAKNAVYLQMNSLQPEDTAAYYCAAAPTSFPTTAYSSSNSYAYWGQGTQVTVSSGGGGSGGGGSGGGGSGSEVQLVESGGGLVQTGGSLRLSCAASGGTFSRDAMAWFRQVPGKEREFVALISWSGATTNYADSVKGRFAISRDNGKNTVYLQMNRLKPADTAIYYCAADRRPMGSRSYFEPTEYDDWGQGTQVTVSSGGGGSGGGGSGGGGSTVSSDKTHTCPPCPAPEAAGGPSVFLFPPKPKDTLMISRTPEVTCVVVDVSHEDPEVKFNWYVDGVEVHNAKTKPREEQYNSTYRVVSVLTVLHQDWLNGKEYKCKVSNKALGAPIEKTISKAKGQPREPQVYTLPPSRDELTKNQVSLTCLVKGFYPSDIAVEWESNGQPENNYKTTPPVLDSDGSFLLYSKLTVDKSRWQQGNVFSCSVMHEALHNHYTQKSLSLSPGK

# Molecular target: T1, human IL-2 receptor IL-2Rα/IL-2Rβ/γc on …
# Assay: FACS cell binding; monovalent
row,Binder,EC50 [nM]
1,"7-MP01G08 VHH-hFc, monospecific monovalent (Fc fusion) VHH: EVQLVESGGGLVQAGGSLRLSCAASGRAFSMYNMGWFRQAPGKEREFVAATGWSGANTPYADSVKGRFTISRDNTQNTVYLQMNSLKPEDTATYYCAADSIRLRSDVTRIPLEYDYWGQGTQVTVSS",4.7
2,"13-MP05E12 (antibody, V domains shown) VH: QVQLQESGGGLVQAGDSLRLSCAASGFNFGWHAMGWFRQAPGKEREFVATITWTGRDTYYADSVRGRFTISKDNAKDTLFLQMNSLRPDDTGVYYCAKARERATWAYSEDDCDYWGQGTQVTVSS",3.2
3,"1-MP01H01 VHH-hFc, monospecific monovalent (Fc fusion) VHH: EVQLVESGGGLVQAGGSLRLSCAASGRTFRTHNMGWFRRAPGKEREFVAAISWNVDNTLYADSVKGRFTISRDNGRNMVYLQMNSLKPEDTAVYYCAADNIPLSSDVAATATEYDYWGQGTQVTVSS",135
4,"4-MP01F04 VHH-hFc, monospecific monovalent (Fc fusion) VHH: QVQLVESGGGLVQAGGSLRLSCAASGGTFRTRNMGWFRRAPGKEREFVAAVSWNVDNKLYADSVKGRFTISRDNGRNMVYLQMNSLKPEDTAVYYCAADNIPLSSDMRPTATEYDYWGQGTQVTVSS",2.2
5,"11-MP05H04 VHH-hFc, monospecific monovalent (Fc fusion) VHH: QLQLVESGGGLVQAGGSLRLSCAASGLTFEGYAIGWFRQAPGKEREGVSYITGSDGTTYYINSVKGRFTISSDNAKSTVYLQMNTLKPEDTAVYYCAVDRLGSQGRYASAWWRSGDMDLWGKGTQVTVSS",5.9
6,"10-MP05F03 VHH-hFc, monospecific monovalent (Fc fusion) VHH: QVQLVESGGGLVQAGGSLRLSCAASGIPFDNYAMGWFRQAPGKEREFVAARDLEGIITRYGDSVKGRFTISRGNAKNTVFLQMNSLKPEDTAVYYCAARDGGVVAGSRSSAQYNYWGQGTQVTVSS",2

# Second part, the binder after the results:
row,EC50 [nM],Binder
1,3.3,"3-MP01E03 VHH-hFc, monospecific monovalent (Fc fusion) VHH: QVQLVESGGGLVQAGGSLRLSCTASGRTLSSYSMAWFRQAADKGREFVTAISSSGVVTHVLDSVKGRFTISRDNAKNTVYLQMNSLQPEDTALYFCAGTASSYSTYEANYNYWGQGTLVTVSS"
2,9.2,"5-MP01F05 VHH-hFc, monospecific monovalent (Fc fusion) VHH: EVQLVESGGGLVQAGGSLRLSCAASIRAFTTWSMAWFRQAPGKEREYVARINVSGSVTYYADFVKGRFTISRDNAKKTMYLEMNNLKPEDTALYYCAADRTGVGTNDYNYWGQGTQVTVSS"
3,2.3,"9-MP05G01 VHH-hFc, monospecific monovalent (Fc fusion) VHH: EVQLVESGGGLVQAGGSLRLSCAASGGSIYTYNMGWFRQAPGKEREFVAGTLWSGGDSVYADFAKGRFTLSRENAKNTLYLQMNSLKPEDTATYYCAIDPLSLTSDWRVDELSSWGKGTLVTVSS"
4,2.7,"8-MP01C12 VHH-hFc, monospecific monovalent (Fc fusion) VHH: QVQLVESGGGLVQPGGSLRLSCATSGFTFSNNFMSWVRQAPGKGLEFVSTISYGGESTTYAEAVKGRFTISRDNAKNTLYLQMNNLKPEDTAIYYCAKATSYTSIRGAPRGQGTQVTVSS"
5,5.6,"6-MP01G05 VHH-hFc, monospecific monovalent (Fc fusion) VHH: QVQLQESGGGLVQAGGSLRLSCAASGRTFSSYAMGWFRQAPGKEREFVAVISWNVDNTEYTDSVKGRFTISRDNDKNMVYLQMNSLKPEDTAVYYCAADSIPLSSDMSPTATEYGYWGQGTQVTVSS"
6,8.5,"12-MP05B12 VHH-hFc, monospecific monovalent (Fc fusion) VHH: QVQLVESGGGLVQAGGSLRLSCAASGFTFDGYAIGWFRQAPGKEREGVSYITGSDGSTYYADSVKGRFTISSNNAKNTVYLHMNSLKPDDAAVYYCAIDRLGSRGAYVPIWWRSSDMDLWGKGTLVTVSS"
